Results on one molecule are retold here after paper PMC5799255, “Histone H5 is a potent Antimicrobial Agent and a template for novel Antimicrobial Peptides” (Scientific Reports, 2018).

In data set [1] the test system is Escherichia coli (O157:H7). Description: Broth microdilution assay (MIC/MBC), planktonic bacteria. Type of data set: cell-based. As to the method:
(§1) Antimicrobial activity of histone H5 against a variety of Gram-positive and Gram-negative planktonic bacteria was evaluated using a broth microdilution assay. The average minimum inhibitory concentration (MIC) and minimum bactericidal concentration (MBC) values (mean ± SD, n = 3) for six Gram-positive and four Gram-negative bacterial species are shown in Table 2. […] E. faecalis was the least susceptible to histone H5 inhibition, requiring over 32 µg/mL for complete bacterial growth inhibition which was the highest histone H5 concentration tested.
(§2) The bacterial strains tested in this study were Gram-positive bacteria (Bacillus cereus (ATCC 11778), methicillin-sensitive Staphylococcus aureus (ATCC 6538), methicillin-resistant Staphylococcus aureus (ATCC 29247), Listeria monocytogenes (ATCC 19112), Enterococcus faecalis (clinical isolate) and vancomycin-resistant Enterococcus (ATCC 51299)) and Gram-negative bacteria Escherichia coli K12 (ATCC 29425), Escherichia coli (O157:H7), Pseudomonas aeruginosa (ATCC 15442) and Salmonella typhimurium (ATCC 1535)). Bacterial colonies from glycerol stocks were plated on LB agar plates (BHI agar plates for L. monocytogenes) and incubated overnight at 37 °C. Single colonies from these plates were grown in 3 mL of LB broth (BHI broth for L. monocytogenes) overnight at 37 °C and shaken at 250 rpm. […] The bacterial suspension was pelleted at 3,000 × g, 4 °C for 10 minutes and washed with PBS (twice), and then adjusted to 10^5–10^6 CFUs/mL in PBS.
(§3) Supplementary Information
(§4) Broth microdilution assay
(§5) The protocol for this step of the project was based on established methods22. […] The microplate was incubated in the EON microplate reader overnight at 206 oscillations/min and at 37°C. […]
This assay is based on a previously described protocol22. The potential for hemolytic activity was assessed using rat red blood cells (RBCs) which were obtained from the University of Ottawa Animal Care Facility and in accordance with the University of Ottawa Animal Care
For orientation: Broth dilution looks for growth in wells or tubes with falling amounts of substance.

Data set [2] relates to Escherichia coli K12 (ATCC 29425). The description is as above. The format is cell-based. As to the method: as §1, §2, §3, §4
The protocol for this step of the project was based on established methods22. Histone H5 or the peptides were dissolved in sterile water, pH 7.4, serially two-fold diluted and aliquoted in a 1:1 (v/v) ratio with bacteria. Kanamycin or ampicillin served as a positive control for inhibition, and sterile water (pH 7.4) as a negative control for inhibition. The tubes were then incubated for 3 hours at 37°C an d shaken at 200 rpm. Next, 100 µL of each tube and 100µL of LB broth (BHI broth for L. monocytogenes) was plated in wells of a 96-well microplate. The microplate was incubated in the EON microplate reader overnight at 206 oscillations/min and at 37°C. During this period, the EON microplate spectrophotometer and Gen5 data analysis software (BioTek, Winooski, VT, USA) were used to monitor the growth of bacteria by measuring the optical density at 600 nm every 30 minutes for 18 hours. The lowest protein concentration without visible bacterial growth was designated as the minimum inhibitory concentration (MIC). Bacteria (10 µL) from the wells at MIC, MIC x 2 and MIC x 3 concentrations of H5 were plated on LB agar (BHI agar for L. monocytogenes) and incubated at 37°C for 18 hours. The lowest concentration of histone H5 without a single colony was designated as the minimum bactericidal concentration (MBC). […]

The test system of data set [3] is Gram-positive and Gram-negative planktonic bacteria. The data set can be described thus: Broth microdilution assay, summary over the planktonic bacteria tested. The format is cell-based. Conditions: bactericidal when MBC ≤4 times the MIC. As to the method: as §1
The bacterial strains tested in this study were Gram-positive bacteria (Bacillus cereus (ATCC 11778), methicillin-sensitive Staphylococcus aureus (ATCC 6538), methicillin-resistant Staphylococcus aureus (ATCC 29247), Listeria monocytogenes (ATCC 19112), Enterococcus faecalis (clinical isolate) and vancomycin-resistant Enterococcus (ATCC 51299)) and Gram-negative bacteria Escherichia coli K12 (ATCC 29425), Escherichia coli (O157:H7), Pseudomonas aeruginosa (ATCC 15442) and Salmonella typhimurium (ATCC 1535)). Bacterial colonies from glycerol stocks were plated on LB agar plates (BHI agar plates for L. monocytogenes) and incubated overnight at 37 °C. […]
as §5

Data set [4] in a line: Circular dichroism (CD) secondary structure analysis, CDSSTR deconvolution. The format is physicochemical. The note with it: for α-helix: room temperature, average of two independent measurements. As to the method:
The secondary structure of histone H5 and the three preparations of histone H5-derived peptide H5(61–90) was investigated in different environments: sterile H2O, pH 7.4 (aqueous environment) and 30 mM SDS (mimicking the negatively charged bacterial membrane environment), by circular dichroism (CD) spectroscopy. […] Deconvolution of the spectral data with the CDSSTR program estimated the secondary structural components (α-helix, β-sheet, turns, etc.) of each peptide (Table 8). […] However, the α-helical proportions in the presence of 30 mM SDS were 76.9%, 84.2%, 75.5% and 84.7% for histone H5, H5(61–90) V1, H5(61–90) V2 and H5(61–90) V3, respectively.
The protocol followed for circular dichroism spectrometry was based on previously described methods. Circular dichroism (CD) measurements were performed using a Jasco-715 Spectropolarimeter (Japan Spectroscopic Co., Tokyo), in which the wavelengths scanned were 185 to 260 nm, using a scan speed of 100 nm/min, a bandwidth and data pitch of 1.0 nm, with a quartz cell (0.1 cm path length). Histone H5 and histone H5-derived peptides were dissolved in sterile ddH2O, pH 7.4, or 30 mM SDS. The CD spectrum of sterile ddH2O (buffer of the samples) was used as the blank. Each CD spectrum represents the average of two independent measurements, each in quintuplicate. The CD data was converted to molar ellipticity [θ], which was calculated using the following equation:1 [θ]=CDinmdeg/(10×pathlengthincm×Cr) where Cr = number of residues x molar concentration (mol/L).
In order to estimate secondary structure content, averaged CD spectra for each peptide were analysed using the CDSSTR software. This program analyzes the molar ellipticity [θ] values at each wavelength and compares them with a library of known protein secondary structures (α-helix, β-sheet, turns, etc.) in order to estimate the percentages of the various secondary structural components of the tested peptide samples.

The mark [5] stands for this setting: broth microdilution, 3 h at 37 °C, then OD600 growth 18 h in LB broth, mean ± SD, n = 3.
The mark [6] stands for this setting: plated on LB agar, 37 °C 18 h, lowest concentration without a single colony, mean ± SD, n = 3.
Where [7] appears, read: value in the figure, representative of three independent trials, each in triplicate.

What is called MIC is the lowest concentration that inhibits growth of the organism. The MBC is the lowest tested concentration that kills the bacteria rather than only halting them. A low value points to more potent killing.

B1: histone H5: erythrocyte-specific linker histone purified from chicken erythrocytes, 190 amino acids (protein, UniProt P02259 2-190, looked up)
Histone H5: TESLVLSPAPAKPKRVKASRRSASHPTYSEMIAAAIRAEKSRGGSSRQSIQKYIKSHYKVGHNADLQIKLSIRRLLAAGVLKQTKGVGASGSFRLAKSDKAKRSPGKKKKAVRRSTSPKKAARPRKARSPAKKPKATARKARKKSRASPKKAKKPKTVKAKSRKASKAKKVKRSKPRAKSGARKSPKKK
With B1, the MIC in data set [1] (setting [5]) is 4.9 ± 1.5 µg/mL; in data set [1] (setting [7]) it was 6.7 µg/mL; in data set [2] (setting [5]), 4.9 ± 1.5 µg/mL; in data set [2] (setting [7]) it was 6.7 µg/mL. Also, the MBC in data set [1] (setting [6]) was determined as 4.9 ± 1.5 µg/mL; in data set [2] (setting [6]) it was 6.7 ± 2.3 µg/mL. This molecule displayed an MBC/MIC in data set [3] of at most 4. Also, the “Random Coil” value in data set [4] (30 mM SDS, CD) amounted to 8.9%; in data set [4] (sterile ddH2O pH 7.4, CD), 32.2%. Further, the Turns turned out to be 4.5% in data set [4] (30 mM SDS, CD) and 22.4% in data set [4] (sterile ddH2O pH 7.4, CD). The β-sheet is on record as 9.7% in data set [4] (30 mM SDS, CD) and 22.7% in data set [4] (sterile ddH2O pH 7.4, CD). The α-helix is reported as 76.9% in data set [4] (30 mM SDS, CD 185-260 nm) and 23.4% in data set [4] (sterile ddH2O pH 7.4, CD 185-260 nm).
